Measurements taken from patent US7972827B2, “Photoswitchable method for the ordered attachment of proteins to surfaces” (Lawrence Livermore National Security, LLC, priority 2003, dated 2011).

Target: T1, MBP-N-intein fusion protein (Synechocystis sp., UniProt P74750)
T1 construct: made in house; host or cells: E. coli BL21(DE3)pLysS+
Assay: in solution trans-splicing activity of photocaged C-intein polypeptides with MBP-N-intein fusion protein
Format: biochemical, Synechocystis sp. PCC6803
Conditions: for trans-splicing activity relative to the non-photocaged C-intein polypeptide: % of the trans-splicing activity of the non-photocaged C-intein polypeptide, SDS-PAGE analysis
Procedure: In-vitro protein trans-splicing was characterized as follows. Each purified C-intein polypeptide was combined with MBP-N-intein fusion protein in splicing buffer (0.5 mM EDTA, 1 mM TCEP, 50 mM sodium phosphate, 150-500 mM NaCl at pH 7). The concentration of the two proteins was typically in the range 0.1-200 μM. The mixture was allowed to react at 4° C. for 12-16 h. The reaction was then quenched by dilution into SDS-PAGE loading buffer containing 20% v/v 2-mercaptoethanol before the SDS-PAGE analysis. The spliced product was purified using HPLC and characterized by ES-MS as the trans-spliced product. The expected mass (average isotopic composition)=43988.0 Da; measured mass=43986±10 Da.
The in solution trans-splicing activity of each photocaged C-intein polypeptide was assayed using the MBP-N-intein fusion protein expressed as described above.

| Substance | ability to promote trans-splicing (in words) (with MBP-N-intein fusion protein, data not shown) | trans-splicing activity relative to the non-photocaged C-intein polypeptide |
| --- | --- | --- |
| C-intein polypeptide with two caged residues, Gly19 and Gly31: DnaE C-intein polypeptide SEQ ID NO:6 with PEGylated thiol linker, photocaged (nitroveratryl) at both Gly19 and Gly31 | completely prevent trans-splicing activity |  |
| C-intein polypeptide with caged Gly6: DnaE C-intein polypeptide SEQ ID NO:6 with PEGylated thiol linker, photocaged (nitroveratryl) at Gly6 |  | about 30% |
| C-intein polypeptide with caged Gly19: DnaE C-intein polypeptide SEQ ID NO:6 with PEGylated thiol linker, photocaged (nitroveratryl) at Gly19 |  | about 30% |
| C-intein polypeptide with caged Gly11: DnaE C-intein polypeptide SEQ ID NO:6 with PEGylated thiol linker, photocaged (nitroveratryl) at Gly11 |  | around 60% |
